This note sets out measurements from EP4772535A1 (Chia Tai Tianqing Pharmaceutical Group Co., Ltd., dated 2026).

The target of test [1] is T1, ROR1 naturally expressed on human tumor cell lines (A549, Jeko-1, SW620, PA-1) (human, UniProt Q01973 30-937).
T1 construct: whole, on cells; also called cells expressing ROR1
Description: FACS on A549 cells naturally expressing ROR1.

In test [2] the target is T1, ROR1 naturally expressed on human tumor …. Description: FACS on SW620 cells naturally expressing ROR1.
Test [3] has the same target. The test is described as follows: FACS on Jeko-1 cells naturally expressing ROR1.
For test [4], the target named is T2, human/cynomolgus monkey ROR1 protein (Acro Biosystems, Cat. No.: RO1-H522y) (human/cynomolgus monkey, UniProt Q01973 30-403).
T2 construct: Bought SPR analyte
The test is described as follows: SPR (Biacore), antibody captured on anti-hIgG CM5 chip, ROR1 protein as analyte, 1:1 model. (In general: In SPR one partner is held on a chip, and binding of the other changes the refractive index at the surface.)

The target of test [5] is T1, ROR1 naturally expressed on human tumor …. The test is described as follows: FACS on PA-1 cells naturally expressing ROR1.
Test [6] shares this target. Description: FACS on SW620 cells naturally expressing ROR1. This is another data set of the same source.
For test [7] the target is unchanged. The test is described as follows: FACS on Jeko-1 cells naturally expressing ROR1. This is another data set of the same source.
In test [8] the target is T2, human/cynomolgus monkey ROR1 protein …. The test is described as follows: SPR (Biacore), antibody captured on anti-hIgG CM5 chip, ROR1 protein as analyte, method of Example 5.
Test [9] has as its target T3, human ROR1 on stably transfected cells (NCI-H1993-ROR1, MDA-MB-468-ROR1, NCI-H1975-ROR1, 293T-ROR1-NF-kB) (human, UniProt Q01973 30-937). The test is described as follows: cell-based or functional assay.
Test [10] deals with T3, human ROR1 on stably transfected cells …. The test is described as follows: cell-based or functional assay. The source holds these as a separate data set.
In test [11] the target is T1, ROR1 naturally expressed on human tumor …. The test is described as follows: cell-based or functional assay.
Test [12] shares this target. Description: FACS on PA-1 cells naturally expressing ROR1. The source holds these as a separate data set.
For test [13] the target is unchanged. Description: FACS on SW620 cells naturally expressing ROR1. This is another data set of the same source.
Test [14] has the same target. Description: FACS on Jeko-1 cells naturally expressing ROR1. The source holds these as a separate data set.
Test [15] shares this target. Description: FACS on PA-1 cells naturally expressing ROR1. This is another data set of the same source.
Test [16] has the same target. The test is described as follows: FACS on SW620 cells naturally expressing ROR1. This is another data set of the same source.
Test [17] has the same target. Description: FACS on Jeko-1 cells naturally expressing ROR1. The source holds these as a separate data set.

T2 sequence (Q01973 30-403 limits assumed): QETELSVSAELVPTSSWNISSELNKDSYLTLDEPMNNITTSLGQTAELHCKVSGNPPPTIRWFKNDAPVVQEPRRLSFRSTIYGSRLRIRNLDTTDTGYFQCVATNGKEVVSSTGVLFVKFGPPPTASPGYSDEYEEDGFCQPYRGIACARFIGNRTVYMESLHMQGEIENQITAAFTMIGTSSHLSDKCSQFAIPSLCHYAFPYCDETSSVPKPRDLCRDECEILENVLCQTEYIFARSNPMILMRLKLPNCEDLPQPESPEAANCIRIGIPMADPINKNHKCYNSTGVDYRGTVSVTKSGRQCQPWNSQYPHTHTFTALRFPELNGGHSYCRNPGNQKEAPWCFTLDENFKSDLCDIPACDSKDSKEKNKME
T3 sequence (Q01973 30-937 limits assumed): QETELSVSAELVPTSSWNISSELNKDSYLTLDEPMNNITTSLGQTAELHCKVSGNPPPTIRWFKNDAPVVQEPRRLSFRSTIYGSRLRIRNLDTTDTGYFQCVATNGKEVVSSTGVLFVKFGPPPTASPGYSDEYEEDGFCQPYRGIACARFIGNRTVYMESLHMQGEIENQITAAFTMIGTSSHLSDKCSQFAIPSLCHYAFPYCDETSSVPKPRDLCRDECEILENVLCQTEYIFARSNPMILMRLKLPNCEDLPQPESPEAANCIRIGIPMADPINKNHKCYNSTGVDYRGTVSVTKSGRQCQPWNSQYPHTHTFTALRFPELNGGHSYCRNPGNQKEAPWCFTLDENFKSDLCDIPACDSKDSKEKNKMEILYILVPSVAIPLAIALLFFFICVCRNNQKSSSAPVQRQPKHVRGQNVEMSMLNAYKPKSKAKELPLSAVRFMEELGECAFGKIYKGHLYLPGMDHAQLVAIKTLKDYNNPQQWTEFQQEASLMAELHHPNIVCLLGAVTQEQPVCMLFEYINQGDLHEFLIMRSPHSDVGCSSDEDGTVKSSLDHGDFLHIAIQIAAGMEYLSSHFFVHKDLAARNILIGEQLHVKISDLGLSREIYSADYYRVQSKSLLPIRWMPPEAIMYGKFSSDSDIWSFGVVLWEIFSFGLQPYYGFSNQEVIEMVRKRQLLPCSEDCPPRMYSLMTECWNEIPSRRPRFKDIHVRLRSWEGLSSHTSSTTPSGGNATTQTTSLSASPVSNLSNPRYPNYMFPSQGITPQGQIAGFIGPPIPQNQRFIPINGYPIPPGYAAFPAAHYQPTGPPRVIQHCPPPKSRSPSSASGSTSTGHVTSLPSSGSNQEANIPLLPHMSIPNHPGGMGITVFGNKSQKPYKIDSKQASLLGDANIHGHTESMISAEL
T1 sequence (Q01973 30-937): as the sequence (Q01973 30-937 limits assumed) above

B1: ch137G11D10 (antibody, human IgG1, kappa, V domains shown)
VH: DVQLQESGPGLVKPSQSLSLTCTVTGYSITSDYAWNWIRQFPGNKLEWMGYITYSASTSYNPSLKSRISITRDTSKNQFFLQLNSVTTEDTATYYCARGAGTYYFDYWGQGSTLTVSS
VL: DIVLTQSPASLSVATGEKVTIRCITSTDIDEDMNWYQQKPGEPPKLLISEDNSLRPGVPSRFSSSGYGTDFVLTIENTLSEDVADYYCLQTNNLPLTFGAGTKLEIKR
notes: also called chimeric antibody of m137G11D10
The term EC50 denotes the concentration at which the effect is half-maximal. In general, Kd refers to the free concentration of one partner at which half of the binding sites on the other are occupied at equilibrium, for simple one-to-one binding. A word on the koff: it is a measure of how fast the partners let go of each other. As usually defined, the kon is a measure of how fast the partners come together. For B1, in test [1], the EC50 was 0.02 nM and the “Top (MFI)” value came out at 82800 MFI. Further, in [2], the EC50 stood at 0.01 nM and the “Top (MFI)” value was 27300 MFI. In [3], the EC50 was 0.012 nM and the “Top (MFI)” value was 71100 MFI. In [4], this molecule displayed a dissociation constant Kd of 0.61 nM, a koff of 0.00315 s⁻¹ and an association rate constant (kon) of 5.16e+06 M⁻¹ s⁻¹.

B2: hz135A2B10-1.2 (antibody, human IgG1, kappa, V domains shown)
VH: QVQLVESGGGLVQPGGSLRLSCAASGFAFSTYGMAWVRQAPGKGLEWVASIHKGGFSTYYPDNVKGRFTISRDNDKNSLYLQMNSLRAEDTAVYYCIRHDWDGAMDYWGQGTLVTVSS
VL: DIQMTQSPSSLSASVGDRVTITCKASQDINSYLNWYQQKPGKAPKTLIYRANRLVDGVPSRFSGSGSGQDYTLTISSLQPEDFATYYCLQFDEFPYTFGQGTKVEIKR
notes: Humanized, human IgG1/kappa
As for B2, in test [5], the midpoint of the response, the EC50, lay at 0.217 nM and the “Top (MFI)” value amounted to 238000 MFI. Besides, in [6], the concentration giving a half-maximal response (EC50) worked out at 0.034 nM and the “Top (MFI)” value turned out to be 30400 MFI. In test [7], the EC50 was found to be 0.022 nM and the “Top (MFI)” value was 89700 MFI. In [8], this molecule returned a Kd of 0.569 nM, an off-rate constant (koff) of 0.000596 s⁻¹ and an on-rate (kon) of 1.05e+06 M⁻¹ s⁻¹.

B3: hz135A2B10-1.3 (antibody, human IgG1, kappa, V domains shown)
VH: QVQLVESGGGLVQPGGSLRLSCAASGFAFSTYGMAWVRQAPGKRLEWVASIHKGGFSTYYPDNVKGRFTISRDNDKNSLYLQMNSLRAEDTAVYYCIRHDWDGAMDYWGQGTLVTVSS
VL: DIQMTQSPSSLSASVGDRVTITCKASQDINSYLNWYQQKPGKAPKTLIYRANRLVDGVPSRFSGSGSGQDYTLTISSLQPEDFATYYCLQFDEFPYTFGQGTKVEIKR
notes: Humanized, human IgG1/kappa
B3: in test [5], a half-maximal response (EC50) required 0.192 nM and the “Top (MFI)” value was found to be 249000 MFI. For the same molecule, in [6], it took 0.047 nM to reach a half-maximal effect (EC50) and the “Top (MFI)” value worked out at 29900 MFI. In test [7], the EC50 came to 0.024 nM and the “Top (MFI)” value was 86700 MFI. Also, in test [8], the equilibrium dissociation constant (Kd) worked out at 0.575 nM, the koff amounted to 0.000567 s⁻¹ and the kon turned out to be 985000 M⁻¹ s⁻¹.

B4: ch135A2B10 (antibody, human IgG1, kappa, V domains shown)
VH: DVKLVESGGGLVTPEGSLKLSCAASGFAFSTYGMAWVRQTPEKRLEWVASIHKGGFSTYYPDNVKGRFTISRDNDKNTLYLQMSSLKSEDTAMYYCIRHDWDGAMDYWGQGTSVTVSS
VL: DIVLTQSPSSMYASLGERVTITCKASQDINSYLNWFQQKPGKSPKTLIYRANRLVDGVPSRFSGSGSGQDYSLTISSLEYEDLGIYYCLQFDEFPYTFGGGTKLEIKR
notes: also called chimeric antibody of m135A2B10
As for B4, in test [1], a half-maximal effect (EC50) was put at 0.094 nM and the “Top (MFI)” value was found to be 87800 MFI. Also, in test [2], a half-maximal response (EC50) required 0.06 nM and the “Top (MFI)” value worked out at 29800 MFI. Further, in test [3], the concentration giving a half-maximal response (EC50) amounted to 0.037 nM and the “Top (MFI)” value was determined as 71900 MFI. In test [4], the dissociation constant (Kd) came out at 0.586 nM, the koff turned out to be 0.000551 s⁻¹ and the kon came to 941000 M⁻¹ s⁻¹.

B5: ch29H5D8 (antibody, human IgG1, kappa, V domains shown)
VH: EVQLQQSGAELARPGASVKLSCKASGYTFTNYGISWVKQRTGQGLEWIGEIYPRSVNTYYSAKFKGKATLTADKSSSTAYMELRSLTSEDSAVYFCARHYYGSSLDYWGQGTTLTVSS
VL: DIVLTQSPASLSVATGEKVTIRCITSSDIEDDMNWYQQKPGEPPKLLISEGNSLRPGVPSRFSSSGYGTDFVFTIENTLSEDVADYYCLQSDNIFTFGSGTKLEIKR
notes: also called chimeric antibody of m29H5D8
As to B5, in [1], the concentration giving a half-maximal response (EC50) stood at 0.016 nM and the “Top (MFI)” value came to 78500 MFI. For the same molecule, in [2], it took 0.01 nM to reach a half-maximal effect (EC50) and the “Top (MFI)” value stood at 27000 MFI. For the same molecule, in test [3], the midpoint of the response, the EC50, lay at 0.011 nM and the “Top (MFI)” value is 70400 MFI. In [4], binding was put at a Kd of 0.669 nM, the off-rate (koff) was found to be 0.00248 s⁻¹ and the kon stood at 3.7e+06 M⁻¹ s⁻¹.

B6: hz137G11D10-2.1 (antibody, human IgG1, kappa, V domains shown)
VH: QVQLQESGPGLVKPSQTLSLTCTVSGYSITSDYAWNWIRQHPGKGLEWIGYITYSASTSYNPSLKSRVTISRDTSKNQFSLKLSSVTAADTAVYYCARGAGTYYFDYWGQGTLVTVSS
VL: DIQMTQSPSSLSASVGDRVTITCITSTDIDEDMNWYQQKPGKAPKLLIYEDNSLRPGVPSRFSGSGYGTDFTLTISSLQPEDFATYYCLQTNNLPLTFGQGTKVEIKR
notes: Humanized, human IgG1/kappa
In the case of B6, in test [9], the “Internalization EC50 (nM), MDA-MB-468-ROR1 cells, pH-dependent endocytosis reagent, FACS” value was 1.44 nM and the “Internalization EC50 (nM), NCI-H1993-ROR1 cells, pH-dependent endocytosis reagent, FACS” value came to 1.24 nM. The “Internalization EC50 (nM), NCI-H1975-ROR1 cells, pH-dependent endocytosis reagent, FACS” value in test [10] turned out to be 12.4 nM. Also, in test [11], the “ADCC reporter gene assay EC50 (nM), PA-1 target cells, recombinant Jurkat effector cells” value worked out at 0.04 nM. In addition, in test [12], the EC50 is 0.053 nM and the “Top (MFI)” value came out at 227000 MFI. In test [13], the half-maximal effective concentration (EC50) turned out to be 0.009 nM and the “Top (MFI)” value was 29500 MFI. In test [14], a half-maximal effect (EC50) was put at 0.01 nM and the “Top (MFI)” value was 88000 MFI. In test [8], this molecule showed a Kd of 0.289 nM, a koff of 0.000792 s⁻¹ and a kon of 2.74e+06 M⁻¹ s⁻¹.

B7: ch3G9B1 (antibody, human IgG1, kappa, V domains shown)
VH: QVQLQQSGTELARPGASVKLSCKASGYTFTSYGITWVKQRTGQGLEWIGEIYPRSGNTYFNEKFKGKATLTADKSSSTAYMELRSLTSEDSAVYFCARDRTGTGVDDYWGQGTTLTVSS
VL: DIVLTQSPASLSMAIGEKVTIRCITNTDIDDDMSWYQQKPGEPPNLLISEGNTLRPGVPSRFSSSGYGRDFVFTIENMLSEDVADYYCLQSNNLPYTFGGGTKLEIKR
notes: also called chimeric antibody of m3G9B1
As for B7, in test [1], it took 0.03 nM to reach a half-maximal effect (EC50) and the “Top (MFI)” value was found to be 65200 MFI. Moreover, in test [2], the half-maximal effective concentration (EC50) turned out to be 0.048 nM and the “Top (MFI)” value is 20400 MFI. Moreover, in [3], a half-maximal response (EC50) required 0.01 nM and the “Top (MFI)” value was found to be 61100 MFI. In test [4], this molecule showed a Kd of 27.1 nM, a koff of 0.0639 s⁻¹ and an association rate constant (kon) of 2.36e+06 M⁻¹ s⁻¹.

B8: hz29H5D8-3.1 (antibody, human IgG1, kappa, V domains shown)
VH: QVQLVQSGAEVKKPGSSVKVSCKASGYTFTNYGISWVRQAPGQGLEWMGEIYPRSVNTYYAQKFQGRVTITADKSTSTAYMELSSLRSEDTAVYYCARHYYGSSLDYWGQGTLVTVSS
VL: DIQMTQSPSSLSASVGDRVTITCITSSDIEDDMNWYQQKPGKAPKLLISEGNSLRPGVPSRFSSSGYGTDFTFTISSLQPEDIATYYCLQSDNIFTFGQGTKVEIKR
notes: Humanized, human IgG1/kappa
Take B8: in test [15], the response was half-maximal at 0.092 nM (EC50) and the “Top (MFI)” value was found to be 247000 MFI. In test [16], the EC50 amounted to 0.011 nM and the “Top (MFI)” value is 30700 MFI. In [17], the midpoint of the response, the EC50, lay at 0.014 nM and the “Top (MFI)” value was determined as 87700 MFI. In test [8], this molecule registered an equilibrium dissociation constant (Kd) of 0.112 nM, an off-rate (koff) of 0.000218 s⁻¹ and a kon of 1.95e+06 M⁻¹ s⁻¹.

B9: hz29H5D8-2.1 (antibody, human IgG1, kappa, V domains shown)
VH: QVQLVQSGAEVKKPGSSVKVSCKASGYTFTNYGISWVRQAPGQGLEWMGEIYPRSVNTYYAQKFQGRVTITADKSTSTAYMELSSLRSEDTAVYYCARHYYGSSLDYWGQGTLVTVSS
VL: DIQMTQSPSSLSASVGDRVTITCITSSDIEDDMNWYQQKPGKAPKLLIYEGNSLRPGVPSRFSSSGYGTDFTFTISSLQPEDIATYYCLQSDNIFTFGQGTKVEIKR
notes: Humanized, human IgG1/kappa
B9: in test [15], the EC50 was determined as 0.126 nM and the “Top (MFI)” value was 239000 MFI. In test [16], the EC50 turned out to be 0.015 nM and the “Top (MFI)” value came to 28600 MFI. Besides, in test [17], the EC50 was determined as 0.015 nM and the “Top (MFI)” value is 85000 MFI. In test [8], this molecule came in with an equilibrium dissociation constant (Kd) of 0.589 nM, a koff of 0.000925 s⁻¹ and an on-rate constant (kon) of 1.57e+06 M⁻¹ s⁻¹.
